Assay: soluble on expression in E. coli; label from the status in PepcDB or PDB records

Sequence | soluble on expression in E. coli
DVQLVESGGGSVQAGGSLRLSCAVSGYKDRNYCMGWFRRAPGKEREGVAVIDSSGRTAYADSVKGRFTISRDVALDTAYLQMNSLKPEDTAMYYCAAGWSSLGSCGTNRNRYNYWGQGTQVTVSSRGRHHHHHH | soluble
MLTGCSRRELLDDYPVSGVDIKLDWNGVTDKLPEGVRVIFYPKSAEGRKIDTYLSVRGGKVKVPPGRYSVVAYNYDTETVQIRGEEAYETIEAFTGYCNGLGIAGTEKMVWGPDPLYVVQIDDLHIANSEEELLLDWKPKLVVKTYFFKIKVEGLEYVSSIVGSVEGMAGCYCLGRCCGMMCDAPIYFEAQGRSGEVTGSFTAFGMPEAAISRAGDKIKLTLAFIKVDKTVQKAEIDITEVVTNSESGGSGGGNVDEPPTEIELPLDEKVKVEKPTTNPDGGGGGIGGDVGDWGDEDEVVLPVE | not soluble
MSTEYGCQVTNKFGLPSDDDDEYDDPRELIQKVSQIAAKKKEEKSVKPAQPVKPAAAPVAATKTDGAAGRGRGGRGRGRGGAGRPRDGERVSNENGDRPQGENRRGGPRRGGERGAARPAGRGGRGGFTRENREGEEPKQEVSFEDGQDTRAPRRRGGFTLGGGPSGGRGGGRGGRGRQFDRQSGSDRTGVRSFDKKDGHGKGNWGDQKDELAGETENIAPEGAESTEPEVPREKTAEELAYEAELAVLAKQKTLKEFKAAAKADAPKFNTRKAGEGAADTFGKLVPIKKEVIPDREEDEVVVIHKAPRKQVLDISITFRNDRPERERNDRSERPQRGGPRGGGRGGGRGGQRQGGHGGRNNTPFNASDDAFPALGAK | not soluble
MSATFSPTAVTDLKDIQDVERLMGRIKEARAAVGEVIFGQEAVVDEVLVTLLAGGHALLIGLPGLAKTKLVQTLGTVVGLRDKRVQFTPDLMPADILGSEVLEEDAAGQRGFRFLPGPVFCQLLMADEINRASPRTQSALLQAMQEHRVSVAGHYHDLPAPFHVLATQNPIEQEGTYPLPEAQLDRFLMQVDVGYPDEAAERRMLAATTGVHQPEARAVMTPAELQAAQALVRRVPVGDSVVDAILSLVRAGRPESSPLPEVRDWVAWGPGPRASQALTLAVRARALLDGRFAPSIEDVIALAHPILRHRMALSFGARADGVTLGRVVDRLIDKIA | soluble
MSRSQLTILTNICLIEDLETQRVVMQYRAPENNRWSGYAFPGGHVENDEAFAESVIREIYEETGLTIQNPQLVGIKNWPLDTGGRYIVICYKATEFSGTLQSSEEGEVSWVQKDQIPNLNLAYDMLPLMEMMEAPDKSEFFYPRRTEDDWEKKIF | soluble
GMTGFVINTRRAPFDDWRLREALLLAFNFEFINDTVTGGVMPRITSYFSGTDLAYRPGTASGREAELLAPFAADLPPGTLEGYALPQGDGTARNRTNLRRAAQFLEQAGFRIEQGQLLGPDGAPLALRFLLRQGDSDMQTVLEIYTRALERLGIAAQIEKVDNAQYTARVAELDFDLTPFRRDLSLSPGNEQRLYWGSHSAGQPGTRNLMGAASPAIDAMIDRMLAATTEDELTAATRALDRVLTAGRYVIPIWRFD | not soluble
MVAKIKKFSDSTLSVLNNGERRFYVYCLTDLKKDKILYIGKGCGNRIFEHEWVASRSQDPVSGEIIDRKLKAISKCKKLGRYIISYHLTEVEALAAESALIHFVKSVLGKKLKNKIAGHGPGGISVEELDRRFGFSSLPLNEINPDGLILAIKIHNAFDLDTDEELDYLFDNQDDANLKSRTLGNWVIGKDVASKVKYVIGVHTGLQNAVVSAYEVDGFETMVEETKNGRKQSRYRFRTTSRSEEVLAKLGLQQKCLPELKFGSGGEKAYIRPKTETETEQENIQTTPNPKIKKEKTKSLEHHHHHH | soluble
GMIPFPESRLAAQMSFVVEIDKLKTILRQTLLTDSSRRENDAEHSWHIATMAFLLAEYADEAVQIGRVARMLLIHDIVEIDAGDTFIHDEAGNEDKEERERKAAARLFGLLPPDQAAEYSALWQEYEARETADARFADALDRLQPLLHNFETEGGTWKPHGVTRAKVDKLLPRIEAGSKRLGAYARALVDEAVRRGYLAP | soluble
MEMDKAVTGVALDLDHAQIGLIGIPDQPGIAAKVFQALAERGIAVDMIIQGVPGHDPSRQQMAFTVKKDFAQEALEALEPVLAEIGGEAILRPDIAKVSIVGVGLASTPEVPAKMFQAVASTGANIEMIATSEVRISVIIPAEYAEAALRAVHQAFELDKAHHHHHH | soluble
MRKERRMIKLAIFDMDGTLTDEPSSWEYVHRRLHTDNHMNFRLYRNGFISYEEFFRSDVLAWLRMHPRLKKDDIAGILRDIKLRDGSSEVVNGLKERGLITAVVSGGISWLCDILNEYMQIDYNLSNVIATDEGGFVQPWGYIRVIPERKNIAVKSLQSMLHISKDETISIGDSMENGMIHINSSKAYIIGGKGRHGEIPLGNNIRNLLSYI | not soluble
MKMNYHLSTSSYTTSMLSCTVLDDDIRYEKLSWKLDEAEMQGLIM | soluble
MAHHHHHHMASFNSLGSGAGDSAEAVTRLQEVLRDICATERRQEKTWLNVQPCVLNAVKLLATTAQVYAERVRQLEDVLQRLQQYTTVLVRDREVKEERYRLDAAAHREEADELWKRLLRLEAQQQEPSLQIDQRASEAFKASCKVAVEARVAPLQQELQGLRHRLKALTLSRPYSSHYNRHVRSSSVASNSSALTMRDHYYAGSDGVAASQHHHHSAASSSSTSSLLSLASSTASSLDRHEQYPRRGRIETTSAPAFTPRALASATAAASPSTQRMMREVQRLRRQWQHFLQSVPAALAQGKGSCRAGLRRRDISGSPSRRLSRLTSKGGRRDLTGGLSDVTRANGEGMESIRGSSPQPFYVPAHHPPSSSPTDAVLPKYSSGPTRARSGARATESSTALPASGRRVRWYWLGDAHSHFSTAVRRAENDFAAAKPLSERPQPALSGVSPALPWTECHAFDGRTDCWYSLGTWPTHRRHLREVERAVEEGASRNSGDVSLGWLKWTLSLVSWPDTSTMLVHRAGIYMVRVCLVRHCASASLCSGAGRAESAGHDCGSGGALALCMNGVAVAGLREVVTHALLYTHPATSPADSAAPWWVTRGRSRSTCAYAGNYCSAVDGAAHSPACASPGGSPSRRRFHRDIADATQRQRPCCEPAQLHTNTLTACLFLPAGATLQVRCRGLHNTKTIHEAFCELEYVV | not soluble
KTISLYKTKIPQDKTENVDAFLVTDSELISKLEKAKNKKEETKASGKSASARVAVQATQKKQSNEKQIVGYTTTSALSEDGKHIFKLGKLNSENYERKIIVGATVETLEQSTTLQSEEAIVLAAPGKYKDSDQKRVMITQGPNLIGVHANTKENEETKKFVNW | not soluble
SQSLGDRQRDNEKIDKMQQILRSVNAGIEDKGKVIARYTDVIKQELLINQDGTVAKTFEGEQLAQNEAFTLNTRNAFKSAANDPSISLPLYIAEIEGQKK | not soluble
MGSDKIHHHHHHMKKIIYFITLLFLVGCVDLSENMYNDLGKDNYYQTEQEYDAAFMNQYAFLRTMYAWNVFYLQEITTDEACLPQKGRDGYDGGIYQRMHWHTWTDQDVIINGAWQELFKAVGFCNQVLNDLNNSRSDILPENKKKLYIAESRALRAFFYSMLVDMFGNVPIVEKVSELNPPTKTRTEVFNYVEKEIAEVKDQLLRSTDTGSYGRFTQEAALALLSRLYLNAEVYTGTSRLDDCISVSQTLLQKGYQLESTWDAPFAWNNENSKENIWVIPNDEIVANEMSVLFYRNIHWSQRSQWDWKNPNGGWNGVCTVREFIETYDITHDRRCKYDPQNGMYGQFMWGPQFDLSGNPILGTNEYAGQQLDFTLDLPDMVNNKENAGARNIKYKVKVGAQGMENDFALFRIAEINFNLAEATLRKSNEVDSKALEGINKIRTRAGVSTYATGELTLDELYREKGREMCYETLRRTDMIRFGRFIQPMWDKNYTDKETINLFPIPLQATKLNPELKQNPGYTK | not soluble
MSLEGGKGPRLRDFLSGSLATWALGLAGLVGEAEDSEGEPLWLEKRFLRLSDGALLLRVLGIIAPSSRGGPRMLRGLDGPAAWRVWNLNHLWGRLRDFYQEELQLLILSPPPDLQTLGFDPLSEEAVEQLEGVLRLLLGASVQCEHRELFIRHIQGLSLEVQSELAAAIQEVTQPGAGVVLALSGPDPGELAPAELEMLSRSLMGTLSKLARERDLGAQRLAELLLEREPLCLRPEAPSREGHHHHHH | soluble
MASKVYDPEQRKRMITGPQWWARCKQMNVLDSFINYYDSEKHAENAVIFLHGNATSSYLWRHVVPHIEPVARCIIPDLIGMGKSGKSGNGSYRLLDHYKYLTAWFELLNLPKKIIFVGHDWGAALAFHYAYEHQDRIKAIVHMESVVDVIESWDEWPDIEEDIALIKSEEGEKMVLENNFFVETVLPSKIMRKLEPEEFAAYLEPFKEKGEVRRPTLSWPREIPLVKGGKPDVVQIVRNYNAYLRASDDLPKLFIESDPGFFSNAIVEGAKKFPNTEFVKVKGLHFLQEDAPDEMGKYIKSFVERVLKNEQVDHHHHHH | soluble
MGSDKIHHHHHHMTENEFLSQEEIDKLLSDSDTGGVLTPEEKDMIGEIGNIAMGSAATTLSMILGRDIHITVPTVREEKMKNVKSDFSGEQVVVSVEYTEGLEGLNVLVLDKKLVAVIADLMMGGSGEVETEELDEIKLSAVGEAMNQMMGSAATSLSELLGITINISPPKVEILNFDDPNTQFPPVTDNPEKDVAVVEFEMEIEGLPKSKFYQVISADLVKKMYEYFTKKQSEAAEKKEKKEEKKVKVEPVEFAELKPSETRKTEVPSDKLELLLDIPLKVTVELGRTRMTLKRVLEMIPGSIIELDKLTGEPVDILVNGKLIARGEVVVIDENFGVRITEIVSPKERLELLNE | not soluble
MGSDKIHHHHHHMIILDRNSYDLLSYLIKLEEPETVMSISKVLNQSRRKVYYHLDKINEALPSEIPKIISYPRIGILLSSQQKAACRTLLADLDDYSYVMSIQERMLLSITYIAIAKDRVTIEKLMQINAVSRNTILNDLNELRQRLSFEPYSIKLQATKSKGYYLDCHPLSKIQYLNKLLHTIYTDSNPNFIAMMRDKLRDFADLSSYFSDDISSFIRGELQVSQALLGKKINSQDIRFMVATLPYQLLSYQNLGLSEREQRDLLSEFSPIKERKEYEIARHLNENLKREFHIELDEIETSLIAVLLLSYRKDRDMHLESHDYDDMRRVLSYFIDAFELDYHVCFKHKQLLLNQLLTHCKALLFRKAYGIVSNNPLTDQIKDKYADLFAMTKVCLSILENAWSIKMNDDDIAYITIHIGGELVHSETKPTPPAVLTLVCDEGIGVQKLFMQQCKQYLPHSKIEAVLTSEQFYSVADIMAVDLVISTNDSLDTQLPTLFVHSILRDDDAIKLIRFAKQRGQTGQDDFDKKLETYIRHYVKNDSDCYVLKTKIEGLINEELLYDNNKR | not soluble
MIYPDETMLYAPVEWHDCSEGYTDIRYEKSTDGIAKITINRPQVRNAFRPLTVKEMIQALADARYDDNVGVIILTGEGDKAFCAGGDQKVRGDYGGYQDDSGVHHLNVLDFQRQIRTCPKPVVAMVAGYSIGGGHVLHMMCDLTIAAENAIFGQTGPKVGSFDGGWGASYMARIVGQKKAREIWFLCRQYDAQQALDMGLVNTVVPLADLEKETVRWCREMLQNSPMALRCLKAALNADCDGQAGLQELAGNATMLFYMTEEGQEGRNAFNQKRQPDFSKFKRNP | not soluble
MKWEMGLQEEYIELIKAGKKKIEGRLYDEKRRQIKPGDIIIFEGGKLKVKVKGIRVYSSFKEMLEKEGIENVLPGVKSIEEGVKVYRQFYDEEREKKYGVVAIEIEPIE | soluble
MSDAFTDVAKMKKIKEDIRAHEGQLVELTLENGRKREKNKIGRLIEVYSSLFIIEYSDSSDTPGAIDNSYVESYTYSDILTEKTLIRYLD | not soluble

Source: the DeepSol protein solubility set
